Data published in US6512161.

What was measured:
[1] = target: either human or rabbit apoB; assay: densitometry of non-reducing anti-apo(a) immunoblots, apoB/apo(a) transgenic rabbit plasma (n=3)
[2] = target: rabbit apolipoprotein B-100 (rabbit) (UniProt P17165); assay: densitometry of non-reducing anti-apo(a) immunoblots, apo(a) transgenic rabbit plasma (n=3)
Sequence of UniProt P17165 (P17165 whole entry): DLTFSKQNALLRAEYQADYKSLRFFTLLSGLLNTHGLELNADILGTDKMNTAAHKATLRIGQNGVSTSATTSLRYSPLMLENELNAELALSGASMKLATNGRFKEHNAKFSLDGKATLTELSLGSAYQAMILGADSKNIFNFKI

“human apolipoprotein(a) (from UniProt P08519 20-2040)” was tested, and the percent of apo(a) covalently bound [1] was 80% and the percent of apo(a) migrating as free apo(a) [1] was 20%.
Work on human apolipoprotein(a), P08519 20-2040 yielded a percent of apo(a) bound [2] of 20% and a percent of apo(a) free [2] of 80%.
